PMC8438039

Target: human Toll-like receptor 5 (hTLR5) on HEK-Blue hTLR5 cells (human) (UniProt O60602)
Sequence of UniProt O60602 (O60602 21-858): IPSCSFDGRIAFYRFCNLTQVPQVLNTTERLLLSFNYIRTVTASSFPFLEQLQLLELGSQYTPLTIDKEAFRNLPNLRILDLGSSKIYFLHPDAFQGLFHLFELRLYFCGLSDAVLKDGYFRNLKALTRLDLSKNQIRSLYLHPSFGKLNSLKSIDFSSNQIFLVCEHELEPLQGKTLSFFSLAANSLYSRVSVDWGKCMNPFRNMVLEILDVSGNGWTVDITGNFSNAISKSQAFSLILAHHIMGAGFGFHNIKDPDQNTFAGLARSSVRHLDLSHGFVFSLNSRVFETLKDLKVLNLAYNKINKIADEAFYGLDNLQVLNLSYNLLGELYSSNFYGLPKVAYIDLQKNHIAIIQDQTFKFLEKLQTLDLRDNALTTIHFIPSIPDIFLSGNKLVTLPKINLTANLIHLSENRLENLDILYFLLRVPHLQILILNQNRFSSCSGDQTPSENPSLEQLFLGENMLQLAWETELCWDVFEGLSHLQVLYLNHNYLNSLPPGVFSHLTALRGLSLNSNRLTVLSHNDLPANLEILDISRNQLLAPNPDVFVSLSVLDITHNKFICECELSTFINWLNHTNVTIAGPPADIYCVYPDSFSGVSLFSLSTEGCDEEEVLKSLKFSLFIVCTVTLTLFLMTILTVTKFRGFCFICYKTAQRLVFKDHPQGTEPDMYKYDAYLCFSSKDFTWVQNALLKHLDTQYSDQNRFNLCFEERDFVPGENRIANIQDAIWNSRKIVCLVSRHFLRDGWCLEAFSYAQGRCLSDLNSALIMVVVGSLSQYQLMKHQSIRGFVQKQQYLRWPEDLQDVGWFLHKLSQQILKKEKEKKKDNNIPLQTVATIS

Substance | EC50 of TLR5-dependent NF-κB activation in HEK-Blue hTLR5 cells (OD 620; 0.03719 nM to 76.16 nM protein) [nM]
D2D3 domain-depleted FlaB (FlaB^ΔD2D3) (natural protein) | 13.2
Vibrio vulnificus flagellin B (FlaB), wild type recombinant (natural protein) | 4.18
deimmunized FlaB (dFlaB), FlaB lacking residues 175-193 (natural protein) | 9.01
